T1: Human Semaphorin3A-Sema Domain, TPP-19068 (human, UniProt Q14563 21-569)
T1 construct: produced inhouse in HEK293-6E; also called human monovalent Sema3A domain
T1 sequence: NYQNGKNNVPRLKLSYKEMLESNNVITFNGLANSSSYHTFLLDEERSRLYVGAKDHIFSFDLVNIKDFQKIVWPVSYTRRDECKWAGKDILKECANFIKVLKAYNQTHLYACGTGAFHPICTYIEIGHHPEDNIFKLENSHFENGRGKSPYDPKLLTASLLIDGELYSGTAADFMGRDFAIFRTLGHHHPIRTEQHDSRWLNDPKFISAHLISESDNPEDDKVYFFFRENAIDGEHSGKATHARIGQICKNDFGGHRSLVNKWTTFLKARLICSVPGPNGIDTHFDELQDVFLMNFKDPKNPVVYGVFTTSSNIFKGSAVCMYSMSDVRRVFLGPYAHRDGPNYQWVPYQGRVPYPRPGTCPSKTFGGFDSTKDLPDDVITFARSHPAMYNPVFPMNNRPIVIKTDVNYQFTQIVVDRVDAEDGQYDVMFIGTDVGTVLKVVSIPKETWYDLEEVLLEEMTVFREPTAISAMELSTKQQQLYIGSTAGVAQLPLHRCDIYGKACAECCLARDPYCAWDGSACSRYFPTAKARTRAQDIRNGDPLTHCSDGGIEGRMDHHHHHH

T2: Mouse Semaphorin3A-Sema Domain, TPP-19069 (mouse, UniProt O08665 21-569)
T2 construct: produced inhouse
T2 sequence: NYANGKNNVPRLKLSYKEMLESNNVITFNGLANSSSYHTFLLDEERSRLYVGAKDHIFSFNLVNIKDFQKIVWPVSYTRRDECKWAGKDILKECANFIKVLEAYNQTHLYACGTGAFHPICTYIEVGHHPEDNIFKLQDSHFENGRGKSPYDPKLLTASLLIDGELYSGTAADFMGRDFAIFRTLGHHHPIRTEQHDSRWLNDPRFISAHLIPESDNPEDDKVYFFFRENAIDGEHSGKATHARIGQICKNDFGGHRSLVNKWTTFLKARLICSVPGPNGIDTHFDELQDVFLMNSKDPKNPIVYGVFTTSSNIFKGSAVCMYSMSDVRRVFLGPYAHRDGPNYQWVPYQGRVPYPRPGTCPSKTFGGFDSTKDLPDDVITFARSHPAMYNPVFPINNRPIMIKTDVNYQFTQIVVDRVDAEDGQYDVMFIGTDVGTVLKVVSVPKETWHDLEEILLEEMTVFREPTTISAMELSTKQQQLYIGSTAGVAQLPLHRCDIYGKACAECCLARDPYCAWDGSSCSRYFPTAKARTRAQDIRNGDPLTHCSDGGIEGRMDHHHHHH

T3: Dog Semaphorin3A-Sema Domain, TPP-19121 (dog, UniProt Q63548 21-569 (rat entry), limits assumed)
T3 construct: produced inhouse
T3 chain: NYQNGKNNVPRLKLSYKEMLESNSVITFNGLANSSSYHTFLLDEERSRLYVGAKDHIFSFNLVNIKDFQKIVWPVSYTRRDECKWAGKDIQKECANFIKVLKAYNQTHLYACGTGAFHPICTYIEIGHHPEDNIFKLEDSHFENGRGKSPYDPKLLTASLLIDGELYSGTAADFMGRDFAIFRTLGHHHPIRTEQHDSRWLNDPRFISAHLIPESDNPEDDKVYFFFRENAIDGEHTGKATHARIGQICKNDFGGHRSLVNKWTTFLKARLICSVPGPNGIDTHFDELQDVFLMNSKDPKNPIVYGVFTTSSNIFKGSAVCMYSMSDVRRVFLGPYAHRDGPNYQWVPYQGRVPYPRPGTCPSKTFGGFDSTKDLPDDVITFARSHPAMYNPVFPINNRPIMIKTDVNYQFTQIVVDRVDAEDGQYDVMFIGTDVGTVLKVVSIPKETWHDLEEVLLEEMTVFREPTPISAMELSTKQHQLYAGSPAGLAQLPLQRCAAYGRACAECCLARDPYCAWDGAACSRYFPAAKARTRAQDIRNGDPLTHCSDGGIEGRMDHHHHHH

T4: Pig Semaphorin3A-Sema Domain, TPP-20176 (pig, UniProt Q63548 21-569 (rat entry))
T4 construct: produced inhouse
T4 chain: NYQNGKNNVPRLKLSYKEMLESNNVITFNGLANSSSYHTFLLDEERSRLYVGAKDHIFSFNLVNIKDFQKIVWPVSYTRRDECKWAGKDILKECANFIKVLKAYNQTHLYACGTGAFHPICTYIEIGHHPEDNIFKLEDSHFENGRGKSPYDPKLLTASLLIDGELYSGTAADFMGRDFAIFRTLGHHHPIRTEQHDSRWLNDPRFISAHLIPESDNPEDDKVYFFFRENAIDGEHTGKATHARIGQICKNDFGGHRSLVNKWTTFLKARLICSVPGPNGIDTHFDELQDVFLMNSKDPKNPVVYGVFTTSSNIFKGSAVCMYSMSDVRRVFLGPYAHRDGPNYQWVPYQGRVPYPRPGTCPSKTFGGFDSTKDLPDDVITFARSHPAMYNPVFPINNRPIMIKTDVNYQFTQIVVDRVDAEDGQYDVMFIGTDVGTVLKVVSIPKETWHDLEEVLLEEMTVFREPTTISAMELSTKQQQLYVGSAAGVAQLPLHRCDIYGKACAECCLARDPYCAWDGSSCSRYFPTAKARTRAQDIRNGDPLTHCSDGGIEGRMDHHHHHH


Tests used:
Experiment in all cases: SPR, captured antibody, Sema3A domain analyte
[1] = biological target: T1, Human Semaphorin3A-Sema Domain, …
Experimental: (§1) To assess the binding activity of anti-Sema3A antibodies binding assays were conducted using surface plasmon resonance (SPR). Binding assays were performed on a Biacore T200 instrument (Cytiva) at 25° C. using assay buffer HBS P+, 300 mM NaCl, 0.75 mM CaCl₂, 2.5 mM MgCl₂, 1 mg/ml BSA, 0.05% NaN₃. Antibodies were captured via anti-human Fc IgGs (“Human antibody capture kit”, Order No. BR100839, Cytiva) covalently amine coupled to a Series S CM5 sensor chip (Cytiva). The amine coupling was carried out according to the manufacturer's instructions using 1-ethyl-3-(3-dimethylaminopropyl) carbodiimide hydrochloride (EDC), N-hydroxysuccinimide (NHS) and ethanolamine HCl, pH 8.5 (“Amine Coupling Kit” BR-1000-50, Cytiva.). Human, mouse, cynomolgus, rat, dog and pig monovalent Sema3A domain were used as analytes in a concentration series from 0.024-3.125 nM in multi cycle kinetics mode. The sensor surface was regenerated with glycine pH 2.0 after each antigen injection. Obtained sensorgrams were double referenced (subtraction of reference flow cell signal and buffer injection) and were fitted to a 1:1 Langmuir binding model using the Biacore T200 Evaluation software obtaining the experimental fitted RMax value. To calculate the binding activity first the theoretical RMax needs to be calculated according to equation 1: […]
(§2) Binding activity was determined by dividing the experimental determined RMax by the theoretical calculated RMax according to equation 2: […]

[2] = biological target: T2, Mouse Semaphorin3A-Sema Domain, …
Experimental: as §1, §2

[3] = biological target: T3, Dog Semaphorin3A-Sema Domain, TPP-19121
Experimental: as §1, §2

[4] = biological target: T4, Pig Semaphorin3A-Sema Domain, TPP-20176
Experimental: as §1, §2

Row | Binding Activity [%] [1] [%] | Binding Activity [%] [2] [%] | Binding Activity [%] [3] [%] | Binding Activity [%] [4] [%] | Binder
1 | 107 | 107 | 106 | 105 | TPP-30791 (antibody, human IgG1, kappa, V domains shown, prior art, WO 2020/225400; also called BI clone IV; Böhringer (BI) Clone IV) VH: EVQLVESGGGLLQLGGSLRLSCAASGFTFSSYYMSWVRQAPGKGLEWVSTIIKSGGYAYYPDSVKDRFTISRDNSKNTLNLQMNSLRAEDTAVYYCVKGGQGAMDYWGQGTTVTVSS VL: EIVLTQSPATLSLSPGERATLSCRASQSIGDYLHWYQQKPGQAPRLLIKYASQSISGIPARFSGSGSGTDFTLTISSLEPEDFAVYYCQQGYSFPYTFGGGTKLEIKR
2 | 106 | 103 | 102 | 103 | TPP-30789 (antibody, human IgG1, kappa, V domains shown, prior art, WO 2020/225400; also called BI clone II; Böhringer (BI) Clone II) VH: EVQLVESGGGLVQPGGSLRLSCAASGFPFSSYYMSWVRQAPGKGLEWVSTIIKSGGYAYYPDSVKDRFTISRDNSKNTLYLQMSSLRAEDTAVYYCVRGGQGAMDYWGQGTTVTVSS VL: EIVLTQSPATLSLSPGERATLSCRASQSIGDYLHWYQQKPGQAPRLLIKYASQSISGIPARFSGSGSGTDFTLTITSLEPEDFAVYYCQQGYSFPYTFGGGTKLEIKR
3 | 93 | 93 | 92 | 92 | TPP-30790 (antibody, human IgG1, kappa, V domains shown, prior art, WO 2020/225400; also called BI clone III; Böhringer (BI) Clone III) VH: EVQLVESGGGLVQLGGSLRLSCAASGFTFSSYYMSWVRQAPGKGLEWVSTIIKSGGYAYYPDSVKDRFTISRDNSKNTLYLQMNSLRAEDTAVYYCVKGGQGAMDYWGQGTTVTVSS VL: EIVLTQSPATLSLSPGERATLSCRASQSIGDYLHWYQQKPGQAPRLLIYYASQSISGIPARFSGSGSGTDFTLTISSLEPEDFAVYYCQQGYSFPYTFGGGTKLEIKR

Second part, the binder before the results:

Row | Binder | Binding Activity [%] [1] [%] | Binding Activity [%] [2] [%] | Binding Activity [%] [3] [%] | Binding Activity [%] [4] [%]
4 | TPP-30788 (antibody, human IgG1, kappa, V domains shown, prior art, WO 2020/225400; also called BI clone I; Böhringer (BI) Clone I) VH: EVQLVESGGGLVQPGGSLRLSCAASGFTFSSYYMSWVRQAPGKGLEWVSTIIKSGGYAYYPDSVKDRFTISRDNSKNTLYLQMSSLRAEDTAVYYCVRGGQGAMDYWGQGTTVTVSS VL: EIVLTQSPATLSLSPGERATLSCRASQSIGDYLHWYQQKPGQAPRLLIKYASQSISGIPARFSGSGSGTDFTLTITSLEPEDFAVYYCQQGYSFPYTFGGGTKLEIKR | 107 | 108 | 106 | 107
5 | TPP-15374 (antibody, human IgG1, lambda, V domains shown, human IgG1; also called IgG1, hit from panning; parental mAb) VH: EVQLLESGGGLVQPGGSLRLSCAASGFTFSSYEMNWVRQAPGKGLEWVSGISWNSGSIGYADSVKGRFTISRDNSKNTLYLQMNSLRAEDTAVYYCARSGYSSSWFDPDFDYWGQGTLVTVSS VL: QSVLTQPPSASGTPGQRVTISCTGSSSNIGAGYDVHWYQQLPGTAPKLLIYGNSNRPSGVPDRFSGSKSGTSASLAISGLRSEDEADYYCSSYAGSNPYVVFGGGTKLTVLG | 10 | 106 | 98 | 103
6 | TPP-23298 (antibody, human IgG4 S228P, lambda, V domains shown) VH: EVQLLESGGGLVQPGGSLRLSCAASGFTFYSYAMSWVRQAPGKGLEWVSAIGTGGDTYYADSVKGRFTISRDNSKNTLYLQMNSLRAEDTAVYYCARRDDYTSRDAFDYWGQGTLVTVSS VL: not shown | 107 | 108 | 107 | 107
7 | TPP-15370 (antibody, human IgG1, lambda, V domains shown, human IgG1; also called IgG1, hit from panning; parental mAb) VH: EVQLLESGGGLVQPGGSLRLSCAASGFTFSSYGMHWVRQAPGKGLEWVSAIGTGGDTYYADSVMGRFTISRDNSKNTLYLQMNSLRAEDTAVYYCARRDDYTSRDAFDVWGQGTLVTVSS VL: not shown | 112 | 11 | 114 | 111
8 | TPP-11489 (antibody, human IgG1, lambda, human IgG1; also called Chiome; Chiome Prior Art (hIgG1)) heavy: not shown light: SYELTQPPSVSVSPGQTARITCSGGGSYTGSYYYGWYQQKPGQAPVTVIYYNNKRPSDIPERFSGSLSGTTNTLTISGVQAEDEADYYCGSADNSGDAFGTGTKVTVLGQPKAAPSVTLFPPSSEELQANKATLVCLISDFYPGAVTVAWKADSSPVKAGVETTTPSKQSNNKYAASSYLSLTPEQWKSHRSYSCQVTHEGSTVEKTVAPTECS | 38 | 118 | 22 | 77
9 | TPP-17755 (antibody, human IgG1, lambda, V domains shown, also called Samsung; Samsung Prior Art F11) VH: EVQLLESGGGLVQTGGSLRLSCAASGFTFSDYAMSWVRQAPGKGLEWVSWIYYDSGSKYYADSVKGRFTISRDNSKNTLYLQMNSLRAEDTAVYYCAKLNGDFDYWGQGTLVTVSS VL: QSVLTQPPSASGTPGQRVTISCSGSSSNIGNNDVSWYQQLPGTAPKLLIYADSHRPSGVPDRFSGSKSGTSASLAISGLRSEDEADYYCGAWDSSLSGYVFGGGTKLTVLG | 55 | 57 | 55 | 60

— patent US20240254222A1 (Bayer, published 2024)
